Measured values taken from US20230071422A1 (BEIJING WISDOMAB BIOTECHNOLOGY, published 2023).
Where a chain is given by its changes, count along the chain named.

Assays:
[1] = target: T1, extracellular region of human CD123 subtype 1 with C-terminal His tag (hCD123-SP1-his) (human (Homo sapiens), UniProt P26951 19-305); experiment: phage display, solid-phase screening on hCD123-SP1-His, three rounds
T1 construct: Recombinant, expressed in HEK293 cells
T1 sequence: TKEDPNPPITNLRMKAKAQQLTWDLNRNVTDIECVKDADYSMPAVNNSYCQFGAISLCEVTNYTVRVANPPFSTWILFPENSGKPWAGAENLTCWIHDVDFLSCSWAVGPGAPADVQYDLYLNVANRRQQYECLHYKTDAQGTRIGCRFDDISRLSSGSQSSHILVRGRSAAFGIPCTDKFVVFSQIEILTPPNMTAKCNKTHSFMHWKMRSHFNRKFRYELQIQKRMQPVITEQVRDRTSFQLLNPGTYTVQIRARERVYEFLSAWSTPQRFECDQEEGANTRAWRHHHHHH

[2] = target: T2, extracellular region of cynomolgus monkey CD3E with C-terminal His tag (mfCD3E-his) (cynomolgus monkey (Macaca fascicularis), UniProt Q95LI5 22-117); experiment: SPR, Biacore X100; antibody captured by anti-human IgG (Fc), mfCD3E-his as analyte, 1:1 model
T2 construct: Recombinant, expressed in HEK293 cells
T2 sequence: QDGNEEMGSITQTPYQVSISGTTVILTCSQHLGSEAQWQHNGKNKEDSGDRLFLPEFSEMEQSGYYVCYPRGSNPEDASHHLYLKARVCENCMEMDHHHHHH
Procedure: (§1) The chip surface was regenerated by injecting 3M MgCl₂ solution at 10 μL/min for 30 s. Association rates (Kₒₙ) and dissociation rates (Koff) were calculated from association and dissociation sensorgrams fitted by a 1:1 binding model using Biacore X100 evaluation software version 2.0.1. The dissociation equilibrium constant (KD) was calculated as the ratio Koff/Kₒₙ.

[3] = target: T3, extracellular region of human CD3E with C-terminal His tag (hCD3E-his) (human (Homo sapiens), UniProt P07766 23-126); experiment: SPR, Biacore X100; antibody captured by anti-human IgG (Fc), hCD3E-his as analyte, 1:1 model
T3 construct: Recombinant, expressed in HEK293 cells
T3 sequence (P07766 other isoform, or with tags, fused parts or gaps limits assumed): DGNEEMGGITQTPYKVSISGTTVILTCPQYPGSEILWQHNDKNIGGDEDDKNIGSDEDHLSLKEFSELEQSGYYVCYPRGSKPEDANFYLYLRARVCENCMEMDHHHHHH
Procedure: as §1

[4] = target: T1, extracellular region of human CD123 …; experiment: SPR, Biacore X100; antibody captured by anti-human IgG (Fc), hCD123-SP1-his as analyte, 1:1 model
Procedure: (§2) The affinity of anti-CD123 antibodies was determined by surface plasmon resonance using Biacore X100. Related reagents and consumables such as Amino Conjugation Kit (BR-1000-50), Human Antibody Capture Kit (BR-1008-39), CM5 Chip (BR100012) and 10×HBS-EP (BR100669) buffer with pH 7.4 were all purchased from GE healthcare. According to the instructions in the kits, 1-Ethyl-3-(3-dimethylaminopropyl) carbodiimide hydrochloride (EDC) and N-Hydroxysuccinimide (NHS) was used to activate the surface of the carboxylated CM5 chip, and the anti-human IgG (Fc) antibody (capture antibody) was diluted to 25 μg/mL with 10 mM, pH5.0 sodium acetate, followed by an injection with a flow rate at 10 μL/min to achieve a coupling volume of approximately 10,000 response units (RU). Following the injection of the capture antibody, 1 M ethanolamine was injected to block unreacted groups. […] The chip surface was regenerated by injecting 3M MgCl₂ solution at 10 μL/min for 30 s. Association rates (Kₒₙ) and dissociation rates (Koff) were calculated from association and dissociation sensorgrams fitted by a 1:1 binding model using Biacore X100 evaluation software version 2.0.1. The dissociation equilibrium constant (KD) was calculated as the ratio Koff/Kₒₙ.

[5] = target: T1, extracellular region of human CD123 …; experiment: as above; remark: listed apart in the source
Procedure: as §2

[6] = target: T4, CD123 on the surface of CD123-positive cells (KG-1a, MV-4-11) (human, UniProt P26951 19-378); experiment: flow cytometry on MV-4-11 cells, titration from 100 nM, goat anti-human IgG-FITC; MV-4-11 cells, flow cytometry titration (apparent KD)
T4 construct: whole, on cells; Endogenous CD123 on KG-1a (human acute myeloid leukemia) and MV-4-11 (human acute monocytic leukemia) cells; also called cell surface CD123 antigen; CD123 on the surface of MV-4-11 cells
Procedure: (§3) MV-4-11 cells were plated in a 96-well V-bottom plate at 100 μL/well, and the supernatant was removed after centrifugation. […] The antibodies were added to the wells containing cells and incubated at 4° C. for 1 hour. Then, the plate was washed three times with 200 μL PBS buffer. The goat anti-human IgG-FITC secondary antibody (ZF-0308, ZSGB-BIO) was added to the wells (100 μL/well), and incubated at 4° C. for 30 minutes in the dark. Then, the cells were washed three times with 200 μL of PBS buffer, and resuspended in 100 μL of PBS buffer to detect FITC channel by flow cytometer (ACEA, Novocyte).

[7] = target: T4, CD123 on the surface of CD123-positive …; experiment: flow cytometry titration on MV-4-11 cells, goat anti-human IgG-FITC secondary antibody
Procedure: as §3, with “MV-4-11 cells at the logarithmic phase of growth were used and resuspended to 2×10⁶ […] with PBS buffer containing 1% BSA after centrifugation. MV-4-11” for “MV-4-11”

[8] = target: T3, extracellular region of human CD3E with …; experiment: SPR, Biacore X100; antibody captured by anti-human IgG (Fc) on CM5, hCD3E-his as analyte, 1:1 model, 25 C
Procedure: as §1

[9] = target: T1, extracellular region of human CD123 …; experiment: SPR, Biacore X100; antibody captured by anti-human IgG (Fc) on CM5, hCD123-SP1-his as analyte, 1:1 model, 25 C
Procedure: as §2

B1: anti-human CD123 single chain fragment variable S8F3 (scFv)
scFv: QVQLQQSGAELAKPGASVKISCKASGYTFTSYDVSWVKQRPGQGLEWIGWVYPVDGSTKFNEKFKGKATLTADRSSSTAYMQLTSLTSEDSAVYFCARLRYGNYGDAMDDWGQGTSVTVSAGGGGSGGGGSGGGGSDVVMTQTPVSLSVSLGDQVSISCRPSQSLVHNNGNTYLSWYLQKPGQSPHPLIYKVSNRFSGISDRFSGSGSGTDFTLKISRVEPDDLGVYYCGQGTQYPFTFGSGTKLEIK
B1: binds [1].

B2: control bispecific antibody Xmab14045 (bispecific antibody)
heavy: QVQLQQSGAEVKKPGASVKVSCKASGYTFTDYYMKWVKQSHGKSLEWMGDIIPSNGATFYNQKFKGKATLTVDRSTSTAYMELSSLRSEDTAVYYCARSHLLRASWFAYWGQGTLVTVSSASTKGPSVFPLAPSSKSTSGGTAALGCLVKDYFPEPVTVSWNSGALTSGVHTFPAVLQSSGLYSLSSVVTVPSSSLGTQTYICNVNHKPSDTKVDKKVEPKSCDKTHTCPPCPAPPVAGPSVFLFPPKPKDTLMISRTPEVTCVVVDVKHEDPEVKFNWYVDGVEVHNAKTKPREEEYNSTYRVVSVLTVLHQDWLNGKEYKCKVSNKALPAPIEKTISKAKGQPREPQVYTLPPSREEMTKNQVSLTCDVSGFYPSDIAVEWESDGQPENNYKTTPPVLDSDGSFFLYSKLTVDKSRWEQGDVFSCSVMHEALHNHYTQKSLSLSPGK
scFv: not shown
light: not shown
B2 was tested, and the Kd [2] was 0.935 nM and the Kd [3] was 0.65 nM.

B3: anti-CD123 monoclonal antibody H7A3-h2-m5+L27E5 (antibody, V domains shown)
VH: QVQLVQSGAEVKKPGASVKVSCKASGYTFTSYDVSWVRQAPGQRLEWMGWVYPVDGSTKFNEKFKGRVTLTADRSSSTAYMELSSLRSEDTAVYYCARLTYGDFGDAMDYWGQGTLVTVSS
VL: DIVMTQTPLSLSVTPGQPASISCKSSQSLVHSNDNTYLTWYLQKPGQSPQLLIYKVSNRFSGVPDRFSGSGSGTDFTLKISRVEAEDVGVYYCGQGTQYPFTFGQGTKLEIK
notes: Expressed as a whole antibody of human IgG1 with the common light chain L27E5; also called H7A3 humanized version H7A3-h2-m5
In the case of B3, the Kd [4] is reported as 0.244 nM, the koff [4] is reported as 7.67e-05 s⁻¹ and the kon [4] is reported as 314000 M⁻¹ s⁻¹. It also gave a Kd [5] of 0.22 nM, a koff [5] of 5.14e-05 s⁻¹ and a kon [5] of 234000 M⁻¹ s⁻¹. For the same binder, the Kd [6] was 3.1 nM and the “EC50 (read off the curve)” value [7] was ~3 nM.

B4: S8F3VH+L27E5 (antibody, V domains shown)
VH: QVQLQQSGAELAKPGASVKISCKASGYTFTSYDVSWVKQRPGQGLEWIGWVYPVDGSTKFNEKFKGKATLTADRSSSTAYMQLTSLTSEDSAVYFCARLRYGNYGDAMDDWGQGTSVTVSA
VL: B3 VL
notes: built from the label (S8F3VH heavy chain variable region with the L27E5 light chain)
B4 was tested, and the Kd [5] was 3.32 nM, the koff [5] was 0.000146 s⁻¹ and the kon [5] was 43800 M⁻¹ s⁻¹.

B5: anti-CD3E monoclonal antibody H3B8+L27E5 (antibody, V domains shown)
VH: EVQLVESGGGLVQPGGSLRLSCAASGFTFSNAWMHWVRQAPGKGLEWVGQIKDKSNNYATYYADAVKGRFTISRDDSKNSLYLQMNSLKTEDTAVYYCRYVHYGVRFFYTMDVWGQGTTVTVSS
VL: B3 VL
notes: captured by an anti-human IgG (Fc) antibody in SPR; also called WM03-C6 humanized monoclonal antibody
B5 gave a Kd [2] of 5.26 nM, a koff [2] of 0.000649 s⁻¹ and a kon [2] of 123000 M⁻¹ s⁻¹. It also gave a Kd [8] of 47.6 nM, a koff [8] of 0.000993 s⁻¹ and a kon [8] of 20800 M⁻¹ s⁻¹. It also gave a Kd [3] of 12.7 nM, a koff [3] of 0.000711 s⁻¹ and a kon [3] of 56100 M⁻¹ s⁻¹.

B6: H7A3+L27E5 (antibody, V domains shown)
VH: B4 VH with R100T, N103D, Y104F, D110Y
VL: B3 VL
notes: Whole antibody: H7A3 variable region fused to a human heavy chain constant region, combined with the L27E5 light chain; also called S8F3 heavy chain mutant H7A3
Work on B6 yielded a Kd [4] of 0.226 nM, a koff [4] of 6.89e-05 s⁻¹ and a kon [4] of 305000 M⁻¹ s⁻¹. It also gave a Kd [5] of 0.246 nM, a koff [5] of 6.64e-05 s⁻¹ and a kon [5] of 270000 M⁻¹ s⁻¹.

B7: monoclonal antibody WM03-C6 (antibody, V domains shown)
VH: EVQLVETGENLVQPGKSLRLTCATSGFSFSNAWMHWIRQSPEKQLEWVAQIKDKSNNYATYYAESVNGRFTISRDDSKSSIYLHMDNLKEEDSAIYYCRYVHYGVRFFYTMDVWGQGTSVTVSS
VL: DVVMTQTPVSLSVSLGDQVSISCRPSQSLVHNNGNTYLSWYLQKPGQSPHPLIYKVSNRFSGISDRFSGSGSGTDFTLKISRVEPDDLGVYYCGQGTQYPFTFGSGTKLEIK
notes: also called rat monoclonal antibody WM03-C6; 20E5-F10 of WO 2016/116626 A1
B7 was tested, and the Kd [8] was 10.6 nM, the koff [8] was 0.000288 s⁻¹ and the kon [8] was 27200 M⁻¹ s⁻¹.

B8: S8F3VH+C6VK (antibody, V domains shown)
VH: B4 VH
VL: B7 VL
notes: Whole antibody: variable regions fused to a human heavy chain constant region and a light chain constant region; also called recombinant anti-CD123 monoclonal antibody
With B8 the Kd [9] was 8.03 nM, the koff [9] was 0.00365 s⁻¹ and the kon [9] was 455000 M⁻¹ s⁻¹.
